In assay [1] the target is T1, CD166 (ALCAM, activated leukocyte cell adhesion molecule), native, of human tumor cell lines (human, UniProt Q13740 28-583).
T1 construct: whole, on cells; The antigen was identified as CD166 by mass spectrometry of protein from PM-1 cells; also called CD166 antigen; MEMD
T1 sequence (looked up): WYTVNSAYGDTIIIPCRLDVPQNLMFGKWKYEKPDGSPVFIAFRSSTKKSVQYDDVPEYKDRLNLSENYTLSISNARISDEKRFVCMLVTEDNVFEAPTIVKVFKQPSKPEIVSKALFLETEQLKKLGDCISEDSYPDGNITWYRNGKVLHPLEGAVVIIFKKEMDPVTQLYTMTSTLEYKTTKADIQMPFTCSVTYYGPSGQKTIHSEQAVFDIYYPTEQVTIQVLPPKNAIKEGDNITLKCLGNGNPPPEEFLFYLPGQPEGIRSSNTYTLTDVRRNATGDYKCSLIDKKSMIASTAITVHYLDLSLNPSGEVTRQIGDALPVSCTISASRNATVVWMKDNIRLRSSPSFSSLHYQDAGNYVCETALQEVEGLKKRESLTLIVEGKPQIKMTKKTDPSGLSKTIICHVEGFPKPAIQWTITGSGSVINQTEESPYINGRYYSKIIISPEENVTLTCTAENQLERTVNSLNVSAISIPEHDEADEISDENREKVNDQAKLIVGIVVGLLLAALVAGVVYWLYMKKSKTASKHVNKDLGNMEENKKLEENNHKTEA
Briefly: western blot, non-reducing SDS-PAGE, probed with EJ212/007-Cl2-5 IgG and anti-human IgG-HRP. An excerpt: Membrane proteins were isolated from two EJ212/007-Cl2-5 antigen-positive cell lines (PM-1 and DU-145; determined by FACS analysis) and concentrated by ultra-centrifugation. The membranes were resuspended in detergent (CHAPS/DOC) which was then removed from the sample by using Detergent Removing Resin (Pierce) in column format. The purified membrane proteins before and after sample concentration, and the cytosolic fraction were subsequently analysed by SDS-PAGE/Western under non-reducing conditions. The blot was probed with the EJ212/007-Cl2-5 IgG and corresponding secondary anti-human IgG coupled to HRP in order to visualise the proteins by chemiluminescence.

In assay [2] the target is T2, human recombinant CD166-Fc (R&D systems), complete extracellular domain (human, UniProt Q13740 28-527).
T2 construct: extracellular domain; Bought reagent; also called recombinant CD166-Fc antigen; human CD166-Fc; not shown: Fc part of the commercial chimera, not described
T2 sequence (looked up): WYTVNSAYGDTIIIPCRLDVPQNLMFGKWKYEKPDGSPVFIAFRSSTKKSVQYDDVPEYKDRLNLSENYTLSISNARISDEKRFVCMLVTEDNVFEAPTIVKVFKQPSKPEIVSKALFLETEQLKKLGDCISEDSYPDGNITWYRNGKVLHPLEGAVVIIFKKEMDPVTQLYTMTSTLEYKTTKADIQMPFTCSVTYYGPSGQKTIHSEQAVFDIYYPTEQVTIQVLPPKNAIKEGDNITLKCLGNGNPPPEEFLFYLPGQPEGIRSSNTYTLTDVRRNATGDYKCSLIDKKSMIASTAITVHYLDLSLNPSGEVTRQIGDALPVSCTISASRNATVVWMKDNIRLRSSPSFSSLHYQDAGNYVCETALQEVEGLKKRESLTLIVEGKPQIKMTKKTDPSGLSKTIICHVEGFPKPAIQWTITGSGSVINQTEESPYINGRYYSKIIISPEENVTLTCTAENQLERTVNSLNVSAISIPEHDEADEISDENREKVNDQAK
Kind of assay: ELISA, plate coated with 10 ug/ml CD166-Fc, detection with anti-kappa-HRP and ABTS, absorbance at 405 nm. The protocol:
Binding of the EJ212/007-Cl2-5 IgG to the CD166 antigen was tested in ELISA. An ELISA plate was coated overnight with 10 μg/ml of a commercially available recombinant CD166-Fc antigen (R&D systems), CD166 d1-5/Fc or CD166 d1-3/Fc. An IgG with irrelevant binding specificity was added to the ELISA as a negative control. After washing with PBS/0.05% Tween the plate was incubated for 1 hour with a dilution series of EJ212/007-Cl2-5 IgG ranging from 10 to 0.16 μg/ml. Detection of the bound IgG was done by incubation for 1 hour with 1 μg/ml anti-kappa-HRP and 15 minutes with the 1-step ABTS substrate (Pierce). The absorbance was measured at 405 nm.
In general terms: In an ELISA, binding on a coated surface is turned into a signal by an enzyme label.

Assay [3] concerns the target T3, mouse recombinant CD166-Fc (R&D systems) (mouse, UniProt Q61490 28-527).
T3 construct: Bought reagent; also called mouse CD166-Fc; not shown: Fc part of the commercial chimera, not described
T3 sequence (looked up): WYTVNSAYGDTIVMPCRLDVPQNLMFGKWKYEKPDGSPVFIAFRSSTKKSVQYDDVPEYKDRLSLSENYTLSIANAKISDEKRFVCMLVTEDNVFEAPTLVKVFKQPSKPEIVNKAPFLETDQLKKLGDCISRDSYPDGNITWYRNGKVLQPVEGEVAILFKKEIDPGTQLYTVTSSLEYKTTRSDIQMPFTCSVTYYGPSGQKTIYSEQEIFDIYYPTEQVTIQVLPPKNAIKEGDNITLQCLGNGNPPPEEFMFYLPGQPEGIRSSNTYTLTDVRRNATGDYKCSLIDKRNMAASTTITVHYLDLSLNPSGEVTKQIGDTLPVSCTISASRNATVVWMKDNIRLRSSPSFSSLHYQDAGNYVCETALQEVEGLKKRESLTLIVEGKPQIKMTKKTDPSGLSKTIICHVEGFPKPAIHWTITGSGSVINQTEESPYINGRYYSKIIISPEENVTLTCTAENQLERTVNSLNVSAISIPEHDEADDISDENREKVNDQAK
Briefly: ELISA on coated mouse CD166-Fc.

The next assay has as its target T4, Recombinant ALCAM/Fc (UniProt Q13740 28-527, limits assumed).
T4 construct: also called CD166 antigen (Biacore)
T4 sequence (looked up): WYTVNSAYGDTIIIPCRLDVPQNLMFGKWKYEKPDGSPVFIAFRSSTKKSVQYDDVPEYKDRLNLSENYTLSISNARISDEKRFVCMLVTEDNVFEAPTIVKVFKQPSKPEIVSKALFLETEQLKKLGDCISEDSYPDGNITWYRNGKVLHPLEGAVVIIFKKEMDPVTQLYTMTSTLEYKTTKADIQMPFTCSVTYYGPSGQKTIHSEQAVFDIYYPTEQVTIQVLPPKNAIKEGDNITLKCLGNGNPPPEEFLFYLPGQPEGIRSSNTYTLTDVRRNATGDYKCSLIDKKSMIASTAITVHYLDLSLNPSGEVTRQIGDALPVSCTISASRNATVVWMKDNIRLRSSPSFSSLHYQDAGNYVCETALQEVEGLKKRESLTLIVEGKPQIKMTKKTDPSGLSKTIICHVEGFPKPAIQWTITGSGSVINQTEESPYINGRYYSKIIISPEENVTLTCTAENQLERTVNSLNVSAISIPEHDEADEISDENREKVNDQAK
Kind of assay: Biacore T100; ALCAM/Fc (250 RU) amine-coupled to a CM5 chip; Fab at 3.9 to 125 nM; heterogeneous ligand model; Fab, not IgG; ALCAM/Fc on the chip. The protocol: Binding affinity of EJ212/007-Cl2-5 Fab fragments to the CD166 antigen was measured by Biacore analysis. Recombinant ALCAM/Fc (250RU) was immobilized by amine coupling to a CM5 chip. A range of concentrations of the Fab antibody, from 3.9 to 125 nM (nanomolar), were run over the chip. The binding affinity, expressed as the Kd, was calculated using the Heterogen ligand binding model in the Biacore T100 Evaluation software.
Background: SPR reads the build-up and loss of mass on a sensor chip optically.

The target of assay [4] is T1, CD166 (ALCAM, activated leukocyte cell …). Briefly: photo-cross-linking of linker-coupled scFv to PM-1 cells, His-column and streptavidin-bead purification, blot detected with streptavidin-HRP. On the procedure: PM-1 cells (2×10⁶) were incubated with 25 μg of the above linker coupled scFv. After washing with PBS the cells were exposed to UV light at 302 nm. This was followed by lysis of the cells by NP-40 in the presence of DNAsel. After incubation on ice SDS was added and the samples were loaded on a His-column. The column was washed in the presence of NP-40 and SDS and the protein of interest was eluted with 5 mM DTT in the same detergents. The eluted sample was then mixed with streptavidin beads and the beads were washed in the presence of SDS. The SDS concentrations was increased and the beads were incubated at 90° C. for five minutes. The supernatant was then run on a 7% SDS-PAGE, transferred to a PVDF membrane and detected with streptavidin-HRP.

B1: EJ212/007-Cl2-5 IgG (antibody)
heavy: not shown
light: DIRMTQSPSFLSASVGDRVTITCRASQDISSYFAWYQQKPGKAPKLLIYAASTLRSGVPSRFSGSGSGTDFTLTISSLQPEDFATYYCQQSYSTPRITFGQGTRLEIKRTVAAPSVFIFPPSDEQLKSGTASVVCLLNNFYPREAKVQWKVDNALQSGNSQESVTEQDSKDSTYSLSSTLTLSKADYEKHKVYACEVTHQGLSSPVTKSFNRGEC
notes: Human IgG1/kappa; also called IgG form of EJ212/007-Cl2-5; EJ212/007-Cl2-5 IgG antibody
Turning to B1, the binding result in assay [1], in assay [2] and in assay [3] was “binds” in each case.

B2: EJ212/007-Cl2-5 Fab (Fab, V domains shown)
VH: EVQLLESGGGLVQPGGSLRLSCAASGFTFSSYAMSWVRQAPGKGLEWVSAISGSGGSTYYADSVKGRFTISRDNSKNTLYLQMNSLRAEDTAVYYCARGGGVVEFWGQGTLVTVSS
VL: DIRMTQSPSFLSASVGDRVTITCRASQDISSYFAWYQQKPGKAPKLLIYAASTLRSGVPSRFSGSGSGTDFTLTISSLQPEDFATYYCQQSYSTPRITFGQGTRLEIK
notes: Fab format of EJ212/007-Cl2-5; The CH1 and CL of the Fab, and how it was made, are not described; also called EJ212/007-Cl2-5 Fab fragments; Fab antibody
For orientation: Kd means the concentration at which binding is half-saturated. As for B2, in the assay with Recombinant ALCAM/Fc, the Kd turned out to be 29 nM.

B3: scFv EJ212/007-Cl2-5 T68C (scFv, name in Kabat numbering)
scFv: EVQLLESGGGLVQPGGSLRLSCAASGFTFSSYAMSWVRQAPGKGLEWVSAISGSGGSTYYADSVKGRFCISRDNSKNTLYLQMNSLRAEDTAVYYCARGGGVVEFWGQGTLVTVSSKLSGSASAPKLEEGEFSEARVDIRMTQSPSFLSASVGDRVTITCRASQDISSYFAWYQQKPGKAPKLLIYAASTLRSGVPSRFSGSGSGTDFTLTISSLQPEDFATYYCQQSYSTPRITFGQGTRLEIK
modifications: Mts-Atf-LC-Biotin linker (Pierce 33083) coupled to the introduced Cys 68 (Kabat)
notes: Expressed in E. coli TG1; also called EJ212/007-Cl2-5 scFv (His-tagged) with a cysteine introduced by point mutation at position 68 (Kabat, RFCIS); linker coupled scFv
In the case of B3, the binding result in assay [4] is listed as “binds”.

The values above are taken from US20090070890A1 (AFFITECH, published 2009).
